# Results reported in patent US20180273587A1 (AILERON THERAPEUTICS, published 2018).
# Positions of bridges follow the written chain, without caps; N, C: chain ends. Non-standard residues stand in square brackets, D forms with d. R8 = C=CCCCCCC[C@@](C)(N)C(=O)O; S5 = C=CCCC[C@](C)(N)C(=O)O
# B1: SEQ ID NO: 1652 (peptide)
# peptide: Ac-IWIAAALR[R8]IGDQFN[S5]YYA-NH2
# modifications: staple 9-16
# SMILES: CC[C@H](C)[C@H](NC(C)=O)C(=O)N[C@@H](Cc1c[nH]c2ccccc12)C(=O)N[C@H](C(=O)N[C@@H](C)C(=O)N[C@@H](C)C(=O)N[C@@H](C)C(=O)N[C@@H](CC(C)C)C(=O)N[C@@H](CCCNC(=N)N)C(=O)N[C@]1(C)CCCCCCC=CCCC[C@@](C)(C(=O)N[C@@H](Cc2ccc(O)cc2)C(=O)N[C@@H](Cc2ccc(O)cc2)C(=O)N[C@@H](C)C(N)=O)NC(=O)[C@H](CC(N)=O)NC(=O)[C@H](Cc2ccccc2)NC(=O)[C@H](CCC(N)=O)NC(=O)[C@H](CC(=O)O)NC(=O)CNC(=O)[C@H]([C@@H](C)CC)NC1=O)[C@@H](C)CC
# B2: SEQ ID NO: 1666 (peptide)
# peptide: Ac-IWIAQALR[R8]IADQFN[S5]YYA-NH2
# modifications: staple 9-16
# SMILES: CC[C@H](C)[C@H](NC(C)=O)C(=O)N[C@@H](Cc1c[nH]c2ccccc12)C(=O)N[C@H](C(=O)N[C@@H](C)C(=O)N[C@@H](CCC(N)=O)C(=O)N[C@@H](C)C(=O)N[C@@H](CC(C)C)C(=O)N[C@@H](CCCNC(=N)N)C(=O)N[C@]1(C)CCCCCCC=CCCC[C@@](C)(C(=O)N[C@@H](Cc2ccc(O)cc2)C(=O)N[C@@H](Cc2ccc(O)cc2)C(=O)N[C@@H](C)C(N)=O)NC(=O)[C@H](CC(N)=O)NC(=O)[C@H](Cc2ccccc2)NC(=O)[C@H](CCC(N)=O)NC(=O)[C@H](CC(=O)O)NC(=O)[C@H](C)NC(=O)[C@H]([C@@H](C)CC)NC1=O)[C@@H](C)CC
# B3: SEQ ID NO: 1660 (peptide)
# peptide: Ac-IWIAQALQ[R8]IGDQFN[S5]YYA-NH2
# modifications: staple 9-16
# SMILES: CC[C@H](C)[C@H](NC(C)=O)C(=O)N[C@@H](Cc1c[nH]c2ccccc12)C(=O)N[C@H](C(=O)N[C@@H](C)C(=O)N[C@@H](CCC(N)=O)C(=O)N[C@@H](C)C(=O)N[C@@H](CC(C)C)C(=O)N[C@@H](CCC(N)=O)C(=O)N[C@]1(C)CCCCCCC=CCCC[C@@](C)(C(=O)N[C@@H](Cc2ccc(O)cc2)C(=O)N[C@@H](Cc2ccc(O)cc2)C(=O)N[C@@H](C)C(N)=O)NC(=O)[C@H](CC(N)=O)NC(=O)[C@H](Cc2ccccc2)NC(=O)[C@H](CCC(N)=O)NC(=O)[C@H](CC(=O)O)NC(=O)CNC(=O)[C@H]([C@@H](C)CC)NC1=O)[C@@H](C)CC
# B4: SEQ ID NO: 1659 (peptide)
# peptide: Ac-IWIAQALQ[R8]IGDAFN[S5]YYA-NH2
# modifications: staple 9-16
# SMILES: CC[C@H](C)[C@H](NC(C)=O)C(=O)N[C@@H](Cc1c[nH]c2ccccc12)C(=O)N[C@H](C(=O)N[C@@H](C)C(=O)N[C@@H](CCC(N)=O)C(=O)N[C@@H](C)C(=O)N[C@@H](CC(C)C)C(=O)N[C@@H](CCC(N)=O)C(=O)N[C@]1(C)CCCCCCC=CCCC[C@@](C)(C(=O)N[C@@H](Cc2ccc(O)cc2)C(=O)N[C@@H](Cc2ccc(O)cc2)C(=O)N[C@@H](C)C(N)=O)NC(=O)[C@H](CC(N)=O)NC(=O)[C@H](Cc2ccccc2)NC(=O)[C@H](C)NC(=O)[C@H](CC(=O)O)NC(=O)CNC(=O)[C@H]([C@@H](C)CC)NC1=O)[C@@H](C)CC
# B5: SEQ ID NO: 1662 (peptide)
# peptide: Ac-IWIAQALR[R8]IGDAIN[S5]YYA-NH2
# modifications: staple 9-16
# SMILES: CC[C@H](C)[C@H](NC(C)=O)C(=O)N[C@@H](Cc1c[nH]c2ccccc12)C(=O)N[C@H](C(=O)N[C@@H](C)C(=O)N[C@@H](CCC(N)=O)C(=O)N[C@@H](C)C(=O)N[C@@H](CC(C)C)C(=O)N[C@@H](CCCNC(=N)N)C(=O)N[C@]1(C)CCCCCCC=CCCC[C@@](C)(C(=O)N[C@@H](Cc2ccc(O)cc2)C(=O)N[C@@H](Cc2ccc(O)cc2)C(=O)N[C@@H](C)C(N)=O)NC(=O)[C@H](CC(N)=O)NC(=O)[C@H]([C@@H](C)CC)NC(=O)[C@H](C)NC(=O)[C@H](CC(=O)O)NC(=O)CNC(=O)[C@H]([C@@H](C)CC)NC1=O)[C@@H](C)CC
# B6: SEQ ID NO: 1665 (peptide)
# peptide: Ac-IWIAQALR[R8]IADAFN[S5]YYA-NH2
# modifications: staple 9-16
# SMILES: CC[C@H](C)[C@H](NC(C)=O)C(=O)N[C@@H](Cc1c[nH]c2ccccc12)C(=O)N[C@H](C(=O)N[C@@H](C)C(=O)N[C@@H](CCC(N)=O)C(=O)N[C@@H](C)C(=O)N[C@@H](CC(C)C)C(=O)N[C@@H](CCCNC(=N)N)C(=O)N[C@]1(C)CCCCCCC=CCCC[C@@](C)(C(=O)N[C@@H](Cc2ccc(O)cc2)C(=O)N[C@@H](Cc2ccc(O)cc2)C(=O)N[C@@H](C)C(N)=O)NC(=O)[C@H](CC(N)=O)NC(=O)[C@H](Cc2ccccc2)NC(=O)[C@H](C)NC(=O)[C@H](CC(=O)O)NC(=O)[C@H](C)NC(=O)[C@H]([C@@H](C)CC)NC1=O)[C@@H](C)CC
# B7: SEQ ID NO: 1667 (peptide)
# peptide: Ac-IWIAQALR[R8]AGDAFN[S5]YYA-NH2
# modifications: staple 9-16
# SMILES: CC[C@H](C)[C@H](NC(C)=O)C(=O)N[C@@H](Cc1c[nH]c2ccccc12)C(=O)N[C@H](C(=O)N[C@@H](C)C(=O)N[C@@H](CCC(N)=O)C(=O)N[C@@H](C)C(=O)N[C@@H](CC(C)C)C(=O)N[C@@H](CCCNC(=N)N)C(=O)N[C@]1(C)CCCCCCC=CCCC[C@@](C)(C(=O)N[C@@H](Cc2ccc(O)cc2)C(=O)N[C@@H](Cc2ccc(O)cc2)C(=O)N[C@@H](C)C(N)=O)NC(=O)[C@H](CC(N)=O)NC(=O)[C@H](Cc2ccccc2)NC(=O)[C@H](C)NC(=O)[C@H](CC(=O)O)NC(=O)CNC(=O)[C@H](C)NC1=O)[C@@H](C)CC
# B8: SEQ ID NO: 1653 (peptide)
# peptide: Ac-IWIAAALR[R8]IGDAFN[S5]YYA-NH2
# modifications: staple 9-16
# SMILES: CC[C@H](C)[C@H](NC(C)=O)C(=O)N[C@@H](Cc1c[nH]c2ccccc12)C(=O)N[C@H](C(=O)N[C@@H](C)C(=O)N[C@@H](C)C(=O)N[C@@H](C)C(=O)N[C@@H](CC(C)C)C(=O)N[C@@H](CCCNC(=N)N)C(=O)N[C@]1(C)CCCCCCC=CCCC[C@@](C)(C(=O)N[C@@H](Cc2ccc(O)cc2)C(=O)N[C@@H](Cc2ccc(O)cc2)C(=O)N[C@@H](C)C(N)=O)NC(=O)[C@H](CC(N)=O)NC(=O)[C@H](Cc2ccccc2)NC(=O)[C@H](C)NC(=O)[C@H](CC(=O)O)NC(=O)CNC(=O)[C@H]([C@@H](C)CC)NC1=O)[C@@H](C)CC
# B9: SEQ ID NO: 1664 (peptide)
# peptide: Ac-IWIAQAAR[R8]IGDAAN[S5]YYA-NH2
# modifications: staple 9-16
# SMILES: CC[C@H](C)[C@H](NC(C)=O)C(=O)N[C@@H](Cc1c[nH]c2ccccc12)C(=O)N[C@H](C(=O)N[C@@H](C)C(=O)N[C@@H](CCC(N)=O)C(=O)N[C@@H](C)C(=O)N[C@@H](C)C(=O)N[C@@H](CCCNC(=N)N)C(=O)N[C@]1(C)CCCCCCC=CCCC[C@@](C)(C(=O)N[C@@H](Cc2ccc(O)cc2)C(=O)N[C@@H](Cc2ccc(O)cc2)C(=O)N[C@@H](C)C(N)=O)NC(=O)[C@H](CC(N)=O)NC(=O)[C@H](C)NC(=O)[C@H](C)NC(=O)[C@H](CC(=O)O)NC(=O)CNC(=O)[C@H]([C@@H](C)CC)NC1=O)[C@@H](C)CC
# B10: SEQ ID NO: 1661 (peptide)
# peptide: Ac-IWIAQALR[R8]IGDAAN[S5]YYA-NH2
# modifications: staple 9-16
# SMILES: CC[C@H](C)[C@H](NC(C)=O)C(=O)N[C@@H](Cc1c[nH]c2ccccc12)C(=O)N[C@H](C(=O)N[C@@H](C)C(=O)N[C@@H](CCC(N)=O)C(=O)N[C@@H](C)C(=O)N[C@@H](CC(C)C)C(=O)N[C@@H](CCCNC(=N)N)C(=O)N[C@]1(C)CCCCCCC=CCCC[C@@](C)(C(=O)N[C@@H](Cc2ccc(O)cc2)C(=O)N[C@@H](Cc2ccc(O)cc2)C(=O)N[C@@H](C)C(N)=O)NC(=O)[C@H](CC(N)=O)NC(=O)[C@H](C)NC(=O)[C@H](C)NC(=O)[C@H](CC(=O)O)NC(=O)CNC(=O)[C@H]([C@@H](C)CC)NC1=O)[C@@H](C)CC
# B11: SEQ ID NO: 1654 (peptide)
# peptide: Ac-IWIAQALR[R8]IGDAFA[S5]YYA-NH2
# modifications: staple 9-16
# SMILES: CC[C@H](C)[C@H](NC(C)=O)C(=O)N[C@@H](Cc1c[nH]c2ccccc12)C(=O)N[C@H](C(=O)N[C@@H](C)C(=O)N[C@@H](CCC(N)=O)C(=O)N[C@@H](C)C(=O)N[C@@H](CC(C)C)C(=O)N[C@@H](CCCNC(=N)N)C(=O)N[C@]1(C)CCCCCCC=CCCC[C@@](C)(C(=O)N[C@@H](Cc2ccc(O)cc2)C(=O)N[C@@H](Cc2ccc(O)cc2)C(=O)N[C@@H](C)C(N)=O)NC(=O)[C@H](C)NC(=O)[C@H](Cc2ccccc2)NC(=O)[C@H](C)NC(=O)[C@H](CC(=O)O)NC(=O)CNC(=O)[C@H]([C@@H](C)CC)NC1=O)[C@@H](C)CC
# B12: SEQ ID NO: 1668 (peptide)
# peptide: Ac-IWIAQALR[R8]AGDQFN[S5]YYA-NH2
# modifications: staple 9-16
# SMILES: CC[C@H](C)[C@H](NC(C)=O)C(=O)N[C@@H](Cc1c[nH]c2ccccc12)C(=O)N[C@H](C(=O)N[C@@H](C)C(=O)N[C@@H](CCC(N)=O)C(=O)N[C@@H](C)C(=O)N[C@@H](CC(C)C)C(=O)N[C@@H](CCCNC(=N)N)C(=O)N[C@]1(C)CCCCCCC=CCCC[C@@](C)(C(=O)N[C@@H](Cc2ccc(O)cc2)C(=O)N[C@@H](Cc2ccc(O)cc2)C(=O)N[C@@H](C)C(N)=O)NC(=O)[C@H](CC(N)=O)NC(=O)[C@H](Cc2ccccc2)NC(=O)[C@H](CCC(N)=O)NC(=O)[C@H](CC(=O)O)NC(=O)CNC(=O)[C@H](C)NC1=O)[C@@H](C)CC
# Molecular target: T1, MCL-1 (UniProt Q07820 172-327, limits assumed)
# T1 construct: also called Myeloid cell leukemia 1
# T1 sequence (Q07820 172-327 limits assumed): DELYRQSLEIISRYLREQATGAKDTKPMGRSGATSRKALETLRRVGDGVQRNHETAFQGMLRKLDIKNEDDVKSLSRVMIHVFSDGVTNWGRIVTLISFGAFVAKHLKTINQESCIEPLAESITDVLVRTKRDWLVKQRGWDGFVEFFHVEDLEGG
# Assay: Ki table, method not stated
row,Binder,Ki [nM]
1,B1,6
2,B2,116
3,B3,14.8
4,B4,76.2
5,B5,3.4
6,B6,96.3
7,B7,183
8,B8,6.7
9,B9,177
10,B10,7.5
11,B11,7.4
12,B12,122

# Molecular target: BCL-XL (UniProt Q07817 1-209)
# Sequence (Q07817 1-209): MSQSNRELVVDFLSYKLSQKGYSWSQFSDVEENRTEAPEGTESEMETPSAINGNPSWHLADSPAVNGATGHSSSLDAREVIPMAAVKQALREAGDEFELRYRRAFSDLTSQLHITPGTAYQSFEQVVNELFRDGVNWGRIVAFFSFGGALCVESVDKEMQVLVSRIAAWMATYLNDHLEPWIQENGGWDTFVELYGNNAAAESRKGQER
# Assay: Ki table, method not stated
row,Binder,Ki [nM]
1,B1,4
2,B2,7.7
3,B3,6.3
4,B4,325
5,B5,14.1
6,B6,7.7
7,B7,18.1
8,B8,25.6
9,B9,154
10,B10,402
11,B11,55.7
12,B12,1.9

# Molecular target: BCL-2 (UniProt P10415 1-217, limits assumed)
# Sequence (P10415 1-217 limits assumed): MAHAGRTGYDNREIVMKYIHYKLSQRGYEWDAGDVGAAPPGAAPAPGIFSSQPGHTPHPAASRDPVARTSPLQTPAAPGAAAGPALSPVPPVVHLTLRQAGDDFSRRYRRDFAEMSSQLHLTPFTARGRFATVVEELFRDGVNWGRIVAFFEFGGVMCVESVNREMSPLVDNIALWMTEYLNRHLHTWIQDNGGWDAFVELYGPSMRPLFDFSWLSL
# Assay: Ki table, method not stated
row,Binder,Ki [nM]
1,B1,22
2,B2,25.6
3,B3,27.5
4,B4,365
5,B5,113
6,B6,84
7,B7,59.6
8,B8,65.4
9,B9,502
10,B10,140
11,B11,115
12,B12,4.8
